We go through 3 molecules from paper PMC9606368, “Membrane mediated phase separation of the bacterial nucleoid occlusion protein Noc” (Scientific Reports, 2022).

Test [1] deals with T1, nucleoid occlusion protein Noc (wild type) (B. subtilis, UniProt P37524 1-283).
T1 construct: Nucleoid occlusion protein Noc, a ParB-like protein of B. subtilis; In the microscopy with FtsZ the legends say only 'Noc'; part of it may have been the KCK-tagged, Atto488-labelled form; also called WT Noc; wildtype Noc; source: E. coli Rosetta (DE3), purified (HisTrap, Heparin HP, Superdex-75)
T1 sequence (looked up): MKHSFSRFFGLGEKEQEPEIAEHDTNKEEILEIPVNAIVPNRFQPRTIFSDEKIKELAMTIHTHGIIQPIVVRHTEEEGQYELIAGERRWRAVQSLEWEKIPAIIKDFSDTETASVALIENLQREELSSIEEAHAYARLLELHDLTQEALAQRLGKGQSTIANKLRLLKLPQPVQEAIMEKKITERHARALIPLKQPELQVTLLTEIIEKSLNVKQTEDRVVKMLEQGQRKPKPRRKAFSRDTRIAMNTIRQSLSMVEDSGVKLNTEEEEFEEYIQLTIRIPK
Nature of the test: recruitment to GUV membranes (confocal microscopy); 3 µM unlabelled WT Noc added to Atto488-Noc R89A and GUVs (70:30 POPC:POPG); the mutant alone at 4 µM with 1 mM CTP and 1.5 µM dsNBS does not bind the GUV. The following applies: both partners purified.

Test [2] has as its target T2, nucleoid occlusion protein Noc (wild type) (Bacillus subtilis (strain 168), UniProt P37524).
T2 chain: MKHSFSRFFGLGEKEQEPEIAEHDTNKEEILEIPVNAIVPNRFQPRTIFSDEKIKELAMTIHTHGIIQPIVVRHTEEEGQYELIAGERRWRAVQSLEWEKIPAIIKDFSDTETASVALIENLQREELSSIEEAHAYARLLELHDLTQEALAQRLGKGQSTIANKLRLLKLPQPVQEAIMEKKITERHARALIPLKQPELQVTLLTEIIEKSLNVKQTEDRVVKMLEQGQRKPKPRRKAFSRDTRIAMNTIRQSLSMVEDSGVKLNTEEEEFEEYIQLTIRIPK
Briefly: QCM-D on SLB; FtsZ GTPase assay; non-phase-separated Noc; FtsZ is up-concentrated only in Noc condensates.

The target of test [3] is T2, nucleoid occlusion protein Noc (wild …). Briefly: MST; non-phase-separated Noc; labelled FtsZ strongly partitions into Noc condensates once Noc phase separates.

B1: Atto488-Noc R89A (non-CTP-binding mutant, KCK-tagged, labelled) (natural protein, B. subtilis, UniProt P37524 1-283, looked up)
chain: MKHSFSRFFGLGEKEQEPEIAEHDTNKEEILEIPVNAIVPNRFQPRTIFSDEKIKELAMTIHTHGIIQPIVVRHTEEEGQYELIAGERAWRAVQSLEWEKIPAIIKDFSDTETASVALIENLQREELSSIEEAHAYARLLELHDLTQEALAQRLGKGQSTIANKLRLLKLPQPVQEAIMEKKITERHARALIPLKQPELQVTLLTEIIEKSLNVKQTEDRVVKMLEQGQRKPKPRRKAFSRDTRIAMNTIRQSLSMVEDSGVKLNTEEEEFEEYIQLTIRIPK
modifications: Atto488 maleimide on cysteine (KCK tag)
notes: Nucleoid occlusion protein Noc of B. subtilis with R89A; Labelling efficiency of ~20% is told for KCK-tagged Noc
Consider B1, for which the binding result in test [1] was “binds”.

B2: B. subtilis FtsZ (protein)
chain: MLEFETNIDGLASIKVIGVGGGGNNAVNRMIENEVQGVEYIAVNTDAQALNLSKAEVKMQIGAKLTRGLGAGANPEVGKKAAEESKEQIEEALKGADMVFVTAGMGGGTGTGAAPVIAQIAKDLGALTVGVVTRPFTFEGRKRQLQAAGGISAMKEAVDTLIVIPNDRILEIVDKNTPMLEAFREADNVLRQGVQGISDLIATPGLINLDFADVKTIMSNKGSALMGIGIATGENRAAEAAKKAISSPLLEAAIDGAQGVLMNITGGTNLSLYEVQEAADIVASASDQDVNMIFGSVINENLKDEIVVTVIATGFIEQEKDVTKPQRPSLNQSIKTHNQSVPKREPKREEPQQQNTVSRHTSQPADDTLDIPTFLRNRNKRG
For the molecule B2, the binding result in test [2] is given as “no binding”.

B3: B. subtilis FtsZ labelled with Alexa-Fluor 647 NHS ester (protein)
chain: MLEFETNIDGLASIKVIGVGGGGNNAVNRMIENEVQGVEYIAVNTDAQALNLSKAEVKMQIGAKLTRGLGAGANPEVGKKAAEESKEQIEEALKGADMVFVTAGMGGGTGTGAAPVIAQIAKDLGALTVGVVTRPFTFEGRKRQLQAAGGISAMKEAVDTLIVIPNDRILEIVDKNTPMLEAFREADNVLRQGVQGISDLIATPGLINLDFADVKTIMSNKGSALMGIGIATGENRAAEAAKKAISSPLLEAAIDGAQGVLMNITGGTNLSLYEVQEAADIVASASDQDVNMIFGSVINENLKDEIVVTVIATGFIEQEKDVTKPQRPSLNQSIKTHNQSVPKREPKREEPQQQNTVSRHTSQPADDTLDIPTFLRNRNKRG
modifications: Alexa-Fluor 647 NHS ester
Consider B3, for which the binding result in test [3] is reported as “no binding”.
